Experimental data: US20190284268A1 (ABCENTRA, published 2019)

Tests used:
[1] = target: Fas (human) (UniProt P25445); assay: cell-based or functional assay
[2] = target: oxidized LDL (oxLDL) (UniProt P04114 28-4563, oxidized LDL particle; kind of oxidation not stated for this assay); assay: cell-based or functional assay
oxidized LDL (oxLDL), sequence (P04114 28-4563 limits assumed): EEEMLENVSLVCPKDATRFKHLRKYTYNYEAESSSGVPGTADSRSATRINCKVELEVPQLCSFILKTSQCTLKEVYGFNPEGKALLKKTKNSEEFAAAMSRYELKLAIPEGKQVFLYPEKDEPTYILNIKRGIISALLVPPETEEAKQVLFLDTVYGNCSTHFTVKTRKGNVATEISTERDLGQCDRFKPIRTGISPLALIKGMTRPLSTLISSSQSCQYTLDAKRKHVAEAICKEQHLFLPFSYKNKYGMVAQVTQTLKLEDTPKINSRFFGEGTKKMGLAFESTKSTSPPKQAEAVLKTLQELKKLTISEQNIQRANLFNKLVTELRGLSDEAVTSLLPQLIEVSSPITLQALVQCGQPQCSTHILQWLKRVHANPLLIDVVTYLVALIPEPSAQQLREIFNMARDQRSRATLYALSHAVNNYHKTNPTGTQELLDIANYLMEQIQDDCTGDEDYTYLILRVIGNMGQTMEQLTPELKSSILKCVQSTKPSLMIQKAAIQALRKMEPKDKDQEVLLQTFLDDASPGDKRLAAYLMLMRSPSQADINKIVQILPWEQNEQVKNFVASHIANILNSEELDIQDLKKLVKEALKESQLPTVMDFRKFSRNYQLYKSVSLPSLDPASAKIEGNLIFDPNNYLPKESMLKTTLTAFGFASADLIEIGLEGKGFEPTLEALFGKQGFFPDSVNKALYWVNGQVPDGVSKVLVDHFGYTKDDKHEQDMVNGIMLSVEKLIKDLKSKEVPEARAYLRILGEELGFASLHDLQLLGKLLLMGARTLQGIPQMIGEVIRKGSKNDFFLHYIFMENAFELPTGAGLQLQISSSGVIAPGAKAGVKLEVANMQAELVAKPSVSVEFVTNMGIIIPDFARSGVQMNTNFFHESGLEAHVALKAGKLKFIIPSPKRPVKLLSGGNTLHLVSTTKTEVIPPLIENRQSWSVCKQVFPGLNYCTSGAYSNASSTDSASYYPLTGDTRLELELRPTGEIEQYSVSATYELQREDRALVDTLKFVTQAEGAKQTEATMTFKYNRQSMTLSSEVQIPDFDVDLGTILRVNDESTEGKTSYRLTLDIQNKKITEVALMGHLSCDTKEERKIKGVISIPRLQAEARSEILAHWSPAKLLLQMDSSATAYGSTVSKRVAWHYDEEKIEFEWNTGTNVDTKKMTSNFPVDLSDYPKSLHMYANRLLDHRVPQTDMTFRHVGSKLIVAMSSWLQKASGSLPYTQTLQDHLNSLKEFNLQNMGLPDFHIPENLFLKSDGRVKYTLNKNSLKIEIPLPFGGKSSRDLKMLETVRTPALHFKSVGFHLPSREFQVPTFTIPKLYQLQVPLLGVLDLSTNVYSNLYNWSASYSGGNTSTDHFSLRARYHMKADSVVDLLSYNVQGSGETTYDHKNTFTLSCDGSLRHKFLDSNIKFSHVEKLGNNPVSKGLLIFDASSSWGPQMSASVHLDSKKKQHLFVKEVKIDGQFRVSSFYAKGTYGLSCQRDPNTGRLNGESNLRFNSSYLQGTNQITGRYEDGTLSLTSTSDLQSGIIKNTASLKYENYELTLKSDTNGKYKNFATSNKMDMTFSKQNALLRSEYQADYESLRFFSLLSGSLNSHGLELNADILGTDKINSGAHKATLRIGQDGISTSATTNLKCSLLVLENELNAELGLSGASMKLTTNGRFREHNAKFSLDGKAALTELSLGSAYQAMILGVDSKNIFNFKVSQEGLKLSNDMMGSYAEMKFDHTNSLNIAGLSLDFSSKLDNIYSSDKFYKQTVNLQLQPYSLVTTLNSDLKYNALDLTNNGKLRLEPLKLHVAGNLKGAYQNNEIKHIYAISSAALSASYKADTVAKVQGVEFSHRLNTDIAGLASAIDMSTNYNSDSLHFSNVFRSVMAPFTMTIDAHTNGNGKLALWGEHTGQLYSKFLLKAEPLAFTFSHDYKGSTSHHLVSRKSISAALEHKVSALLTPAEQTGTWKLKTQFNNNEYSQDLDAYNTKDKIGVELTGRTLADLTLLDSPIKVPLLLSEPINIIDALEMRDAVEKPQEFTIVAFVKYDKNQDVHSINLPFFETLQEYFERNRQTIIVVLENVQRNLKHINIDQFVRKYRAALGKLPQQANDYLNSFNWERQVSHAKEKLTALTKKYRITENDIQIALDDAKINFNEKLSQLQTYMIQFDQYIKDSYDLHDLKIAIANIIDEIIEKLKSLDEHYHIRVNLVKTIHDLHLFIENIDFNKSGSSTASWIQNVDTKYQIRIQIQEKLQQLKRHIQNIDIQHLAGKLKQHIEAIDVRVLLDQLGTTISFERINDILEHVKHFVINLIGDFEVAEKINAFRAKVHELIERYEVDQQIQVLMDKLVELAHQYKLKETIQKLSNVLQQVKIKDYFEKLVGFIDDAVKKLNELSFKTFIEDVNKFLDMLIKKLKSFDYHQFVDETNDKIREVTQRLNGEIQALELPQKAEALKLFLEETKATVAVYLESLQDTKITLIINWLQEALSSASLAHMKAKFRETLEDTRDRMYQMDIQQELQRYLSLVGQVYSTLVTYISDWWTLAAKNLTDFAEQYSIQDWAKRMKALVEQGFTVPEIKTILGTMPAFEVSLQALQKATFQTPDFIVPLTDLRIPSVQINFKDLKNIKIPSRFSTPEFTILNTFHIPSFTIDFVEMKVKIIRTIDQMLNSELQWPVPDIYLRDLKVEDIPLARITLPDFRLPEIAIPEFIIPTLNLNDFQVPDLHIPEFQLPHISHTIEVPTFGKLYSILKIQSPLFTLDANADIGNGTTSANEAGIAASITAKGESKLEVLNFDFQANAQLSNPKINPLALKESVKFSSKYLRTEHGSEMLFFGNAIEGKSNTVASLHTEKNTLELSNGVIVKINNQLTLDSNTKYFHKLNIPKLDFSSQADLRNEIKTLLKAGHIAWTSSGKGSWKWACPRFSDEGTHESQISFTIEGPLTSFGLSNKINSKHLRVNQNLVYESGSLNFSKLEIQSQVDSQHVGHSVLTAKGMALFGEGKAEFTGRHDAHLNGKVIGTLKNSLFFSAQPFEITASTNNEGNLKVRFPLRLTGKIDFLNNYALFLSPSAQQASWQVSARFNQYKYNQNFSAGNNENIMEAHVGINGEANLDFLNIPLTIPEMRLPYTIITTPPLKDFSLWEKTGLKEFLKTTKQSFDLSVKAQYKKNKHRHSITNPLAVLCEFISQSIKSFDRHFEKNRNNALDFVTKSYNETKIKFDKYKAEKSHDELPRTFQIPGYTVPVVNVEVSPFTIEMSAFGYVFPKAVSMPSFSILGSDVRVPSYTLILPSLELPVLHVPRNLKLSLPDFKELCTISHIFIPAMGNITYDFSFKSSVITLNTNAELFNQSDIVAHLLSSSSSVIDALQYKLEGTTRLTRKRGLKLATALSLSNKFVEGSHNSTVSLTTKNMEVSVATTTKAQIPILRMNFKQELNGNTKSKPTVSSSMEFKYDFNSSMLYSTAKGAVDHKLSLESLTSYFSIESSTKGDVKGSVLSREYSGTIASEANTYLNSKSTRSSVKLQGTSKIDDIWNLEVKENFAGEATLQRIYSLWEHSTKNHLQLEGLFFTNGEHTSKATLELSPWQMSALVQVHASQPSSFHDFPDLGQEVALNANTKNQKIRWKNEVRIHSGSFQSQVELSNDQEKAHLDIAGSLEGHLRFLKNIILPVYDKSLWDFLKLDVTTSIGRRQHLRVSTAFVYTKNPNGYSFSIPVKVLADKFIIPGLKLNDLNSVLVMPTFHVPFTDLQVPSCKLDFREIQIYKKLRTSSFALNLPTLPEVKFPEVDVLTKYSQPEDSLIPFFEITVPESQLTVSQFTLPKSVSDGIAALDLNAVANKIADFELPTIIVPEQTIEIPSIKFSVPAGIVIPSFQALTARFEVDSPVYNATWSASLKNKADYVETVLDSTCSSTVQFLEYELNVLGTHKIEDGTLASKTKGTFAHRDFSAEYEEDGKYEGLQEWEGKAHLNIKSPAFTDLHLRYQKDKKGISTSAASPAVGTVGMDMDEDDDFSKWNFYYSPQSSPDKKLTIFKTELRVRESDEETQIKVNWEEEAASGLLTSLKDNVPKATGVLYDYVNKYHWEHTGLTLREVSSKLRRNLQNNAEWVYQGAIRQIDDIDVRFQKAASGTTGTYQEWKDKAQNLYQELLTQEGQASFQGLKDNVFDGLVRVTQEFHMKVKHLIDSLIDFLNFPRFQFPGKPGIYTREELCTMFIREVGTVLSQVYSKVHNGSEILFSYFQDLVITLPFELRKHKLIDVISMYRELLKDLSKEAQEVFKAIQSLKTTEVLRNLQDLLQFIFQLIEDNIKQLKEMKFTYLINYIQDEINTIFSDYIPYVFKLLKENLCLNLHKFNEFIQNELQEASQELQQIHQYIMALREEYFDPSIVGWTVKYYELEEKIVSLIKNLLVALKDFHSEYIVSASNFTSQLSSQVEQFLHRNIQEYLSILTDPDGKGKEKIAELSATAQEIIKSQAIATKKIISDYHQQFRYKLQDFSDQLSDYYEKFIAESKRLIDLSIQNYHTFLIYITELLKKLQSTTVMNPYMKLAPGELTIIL

Fas (human), sequence (P25445 26-335): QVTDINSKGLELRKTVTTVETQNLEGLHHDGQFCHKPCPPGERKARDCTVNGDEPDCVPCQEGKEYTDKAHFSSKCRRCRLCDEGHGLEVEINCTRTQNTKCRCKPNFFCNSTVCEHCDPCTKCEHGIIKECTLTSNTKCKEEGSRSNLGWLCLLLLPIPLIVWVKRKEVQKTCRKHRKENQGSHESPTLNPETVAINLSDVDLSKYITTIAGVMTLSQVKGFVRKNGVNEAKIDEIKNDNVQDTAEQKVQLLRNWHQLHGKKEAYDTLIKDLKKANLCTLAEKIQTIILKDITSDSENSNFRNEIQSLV

| release of FAS from PBMCs of SLE patients [1] | IC50 for MCP-1 inhibition [2] | Molecule |
| --- | --- | --- |
| 73% |  | soluble Fas ligand (from UniProt P48023 134-281) |
|  | ~10 nM | orticumab (antibody, human IgG1, lambda, V domains shown) VH: EVQLLESGGGLVQPGGSLRLSCAASGFTFSNAWMSWVRQAPGKGLEWVSSISVGGHRTYYADSVKGRSTISRDNSKNTLYLQMNSLRAEDTAVYYCARIRVGPSGGAFDYWGQGTLVTVSS VL: QSVLTQPPSASGTPGQRVTISCSGSNTNIGKNYVSWYQQLPGTAPKLLIYANSNRPSGVPDRFSGSKSGTSASLAISGLRSEDEADYYCASWDASLNGWVFGGGTKLTVLG |
